Test [1] has as its target full-length ATF4 (pCEP-ATF4) (UniProt P18848). Nature of the test: cell-based or functional assay.
Test [2] has as its target endogenous ATF4 of HEK293T cells (UniProt P18848). Nature of the test: cell-based or functional assay.

This is an account of results in patent US7838231.

full-length ATF4 (pCEP-ATF4), sequence (P18848 whole entry): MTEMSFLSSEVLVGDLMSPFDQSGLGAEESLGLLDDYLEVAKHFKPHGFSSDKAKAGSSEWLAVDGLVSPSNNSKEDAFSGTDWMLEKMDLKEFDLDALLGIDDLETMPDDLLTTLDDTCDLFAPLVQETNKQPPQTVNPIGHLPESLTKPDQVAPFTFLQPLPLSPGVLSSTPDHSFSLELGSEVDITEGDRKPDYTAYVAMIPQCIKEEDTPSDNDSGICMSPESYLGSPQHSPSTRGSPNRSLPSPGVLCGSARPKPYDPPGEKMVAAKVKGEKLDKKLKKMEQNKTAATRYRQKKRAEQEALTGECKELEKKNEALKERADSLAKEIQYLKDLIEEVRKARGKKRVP
endogenous ATF4 of HEK293T cells, sequence (P18848 whole entry): as above

With “myc-tagged full-length human NPHP6 (pCJW206-Cep290) (from UniProt O15078 1-2479)”, in test [1], the reporter activity (dual-luciferase reporter construct for ATF4, pCRE-ATF4×2, in HEK293T cells), compared to empty vector pCEP4F turned out to be 9.7 fold and the reporter activity (pCRE-ATF4×2, HEK293T cells) with either construct alone, compared to empty vector pCEP4F came out at 2 fold.

“endogenous NPHP6 of HEK293 / HEK293T cells (from UniProt O15078 1-2479)” had a reporter activity (pCRE-ATF4X2, HEK293T cells) after knock-down of NPHP6 with pTER-NPHP6, compared to empty vector in test [2] of 75.4%.
